Two molecules from publication PMC9513805, “A natural transdifferentiation event involving mitosis is empowered by integrating signaling inputs with conserved plasticity factors” can be followed below.

One series deals with SOX-2;HMG-POP-1 (Caenorhabditis elegans;Caenorhabditis …, UniProt Q21305;Q10666 1-283;181-281, |). As to the kind of experiment: EMSA; SOX-2 125-500 nM added to HMG-POP-1; upper shift, most probably ternary complex; 20 mM Tris-HCl pH 8.0, 100 mM NaCl, 100 ug/mL BSA, 1 mM EDTA, 1 mM DTT, 0.1% NP-40; 20 min on ice (supershift 30 min at room temperature), 200 ng Cy5 probe; 6%. Conditions: protein: recombinant;recombinant; tags: N-terminal 6xHis, C-terminal HA (pSJ6094);N-terminal 6xHis (pSJ769); copies: 1;1; label: Cy5 on forward strand; blunt. (A gel shift assay detects complexes by their altered migration in electrophoresis.)
SOX-2;HMG-POP-1, sequence (Q21305 whole entry, chain 1 of 2): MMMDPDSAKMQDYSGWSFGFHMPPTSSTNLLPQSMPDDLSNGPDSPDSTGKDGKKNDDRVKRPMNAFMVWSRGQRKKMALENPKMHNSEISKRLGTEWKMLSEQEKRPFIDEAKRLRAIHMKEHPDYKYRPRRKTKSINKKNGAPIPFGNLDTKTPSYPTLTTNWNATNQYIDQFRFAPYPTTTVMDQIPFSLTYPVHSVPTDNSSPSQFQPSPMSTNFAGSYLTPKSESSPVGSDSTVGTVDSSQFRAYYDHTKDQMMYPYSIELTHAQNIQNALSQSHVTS
SOX-2;HMG-POP-1, sequence (Q10666 181-281, chain 2 of 2): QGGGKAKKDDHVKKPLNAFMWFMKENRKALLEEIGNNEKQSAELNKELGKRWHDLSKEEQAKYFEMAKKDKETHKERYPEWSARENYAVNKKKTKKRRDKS

Series [1] concerns the target T1, SOX-2;HMG-POP-1-FLAG (Caenorhabditis elegans;Caenorhabditis …, UniProt Q21305;Q10666 1-283;181-281, |). Briefly: EMSA supershift; anti-FLAG; 20 mM Tris-HCl pH 8.0, 100 mM NaCl, 100 ug/mL BSA, 1 mM EDTA, 1 mM DTT, 0.1% NP-40; 20 min on ice (supershift 30 min at room temperature), 200 ng Cy5 probe; 6%. The note with it: protein: recombinant;recombinant; tags: N-terminal 6xHis, C-terminal HA (pSJ6094);N-terminal 6xHis, C-terminal FLAG (pSJ1107); copies: 1;1; label: Cy5 on forward strand; blunt.

The target in series [2] is T1, SOX-2;HMG-POP-1-FLAG. As to the kind of experiment: EMSA; co-incubation; upper co-binding band, supershift series with anti-HA and/or anti-FLAG; 20 mM Tris-HCl pH 8.0, 100 mM NaCl, 100 ug/mL BSA, 1 mM EDTA, 1 mM DTT, 0.1% NP-40; 20 min on ice (supershift 30 min at room temperature), 200 ng Cy5 probe; 6%. Conditions: protein: recombinant;recombinant; tags: N-terminal 6xHis, C-terminal HA (pSJ6094);N-terminal 6xHis, C-terminal FLAG (pSJ1107); copies: 1;1; label: Cy5 on forward strand; blunt.

T1 sequence (Q21305 whole entry, chain 1 of 2): as the sequence (Q21305 whole entry, chain 1 of 2) above
T1 sequence (Q10666 181-281, chain 2 of 2): as the sequence (Q10666 181-281, chain 2 of 2) above

B1: lim-6 intron 4 probe 1 (dsDNA)
DNA 1: TACGATTTGCAAACAACAAACATTCCAGACAGAT
DNA 2: ATCTGTCTGGAATGTTTGTTGTTTGCAAATCGTA
For the molecule B1, the binding result in the series with SOX-2;HMG-POP-1 and with SOX-2;HMG-POP-1-FLAG [1] was “binds” each time.

B2: lim-6 intron 4 probe 2 (dsDNA)
DNA 1: CTGCTACCGTAGTGCTTTGTTGATTTAACACACA
DNA 2: TGTGTGTTAAATCAACAAAGCACTACGGTAGCAG
Take B2: the binding result with SOX-2;HMG-POP-1-FLAG [2] is “binds”.
